Changes are numbered by the printed parent chain. Names may count otherwise.
B1: D74F, L72A: acrylodan-labeled rI-FABP mutein D74F, L72A (protein)
chain: AFDGTWKVDRNENYEKFMEKMGINVVKRKLGAHDNLKLTITQEGNKFTVKESSNFRNIDVVFELGVDFAYSAAFGTELTGTWTMEGNKLVGKFKRVDNGKELIAVREISGNELIQTYTYEGVEAKRIFKKE
B2: Y117S, L72A: acrylodan-labeled rI-FABP mutein Y117S, L72A (protein)
chain: B1 chain with F74D, Y117S
B3: W82F, L72A: acrylodan-labeled rI-FABP mutein W82F, L72A (protein)
chain: B1 chain with F74D, W82F
B4: Y117A, L72A: acrylodan-labeled rI-FABP mutein Y117A, L72A (protein)
chain: B1 chain with F74D, Y117A
B5: L78F, L72A: acrylodan-labeled rI-FABP mutein L78F, L72A (protein)
chain: B1 chain with F74D, L78F
B6: L72M: acrylodan-labeled rI-FABP mutein L72M (protein)
chain: B1 chain with A72M, F74D
B7: R106W, L72A: acrylodan-labeled rI-FABP mutein R106W, L72A (protein)
chain: B1 chain with F74D, R106W
B8: L72G: acrylodan-labeled rI-FABP mutein L72G (protein)
chain: B1 chain with A72G, F74D
B9: L72A: acrylodan-labeled rI-FABP clone with L72A (the template mutein) (protein, listed as Rattus norvegicus)
chain: AFDGTWKVDRNENYEKFMEKMGINVVKRKLGAHDNLKLTITQEGNKFTVKESSNFRNIDVVFELGVDFAYSAADGTELTGTWTMEGNKLVGKFKRVDNGKELIAVREISGNELIQTYTYEGVEAKRIFKKDRGHHHHHH
modifications: acrylodan label; MUTAGEN (72)...(72) rat intestinal fatty acid binding protein with alanine substitution for leucine at position 72

Test: Probe fluorescence ratio response to linoleate:BSA complex, relative to ADIFAB2 (ΔR/ΔRAD2)
Assay type: binding
Conditions: fluorescence response (R-Ro) relative to ADIFAB2; linoleate
Protocol: (§1) The intensity ratio (“R” value) for a given probe is determined. The ratio is calculated using the following formula: R=Fλ1/Fλ2 wherein, Fλ1, is the measured fluorescence intensities (intensity of sample with probe present minus intensity of sample without probe present) at wavelength 1 and Fλ2 is the measured fluorescence intensities (intensity of sample with probe present minus intensity of sample without probe present) at wavelength 2. Then, for a given probe, ΔR, the difference in R value between the measurement in the presence of the analyte and in the absence of the analyte, is calculated as follows: ΔR=R+analyte−R0 The ΔR value for a given probe is then compared to a reference probe, for example, ADIFAB or ADIFAB2, by ΔR/ΔRreference. This value is an indication of how dissimilar the new probe (derived by mutation of the template) is to the reference. By this method, probes with new and useful characteristics may be identified. Measurements of fluorescence intensities are obtained using standard techniques.
(§2) Mutant probes were screened in 96-well plates by fluorescence response to five fatty acids: arachidonate, linolenate, linoleate, oleate, and palmitate. Each fatty acid was prepared as a complex with BSA by slow addition of 50 mM stocks of fatty acid sodium salts at pH 11 to 600 μM BSA in HEPES buffer. During the formation of complexes, 15 μL aliquots were periodically measured with the reference probe, ADIFAB2, to determine the ΔR value upon excitation at 375 nm and fluorescence emission at 550 and 457 nm using a Fluorolog-3 spectrofluorometer (Jobin Yvon) (Richieri et al, Molecular and Cellular Biochemistry (1999), 192:87-94 & Richieri et al, J. Biol. Chem. (1996), 271:31068-31074). Complexes were prepared such that the final ΔR was approximately 0.4 which correspond to [FFAu] ranging from 100 to 1000 nM depending on FFA type. These complexes buffer or clamp the FFAu levels at fixed values and therefore ensure the accurate comparison of different probes with the same FFAu concentrations. In contrast, addition of FFAu alone (i.e. uncomplexed FFA) introduces considerable uncertainty in comparing different probes because the FFAu level will be affected by binding to the dispensing device, the walls of the multi-well plates and to the probe itself. Thus, the terms “buffer” and “clamp” as used in this particular context herein are taken to mean the ability of a carrier macromolecule to complex with an unbound metabolite so that the unbound metabolite is presented accurately for measurement purposes and is prevented from non-specific binding such as binding to laboratory apparatus.
(§3) Plates were prepared and read in two stages. First, complexes and fatty acid free BSA were diluted to 6 μM BSA in HEPES and added to the 96-well plate at 300 μL per well. A MultiProbe II HT (Perkin Elmer) (an automated liquid handling system) was used to facilitate plate preparation for high throughput screening, but any automated or manual pipetting system will suffice. The background fluorescence was then measured at the same wavelengths as used for ADIFAB2 using a Fluorolog-3 spectrofluorometer with an external Micromax 384 fluorescence plate reader (Jobin Yvon). In the second stage, 30 μL aliquots of the mutant probes were added to multiple wells of the plate, one for each fatty acid and one with fatty acid free BSA only, and the fluorescence intensity at each wavelength was again measured on the plate reader. After subtraction of the background fluorescence, the fluorescence ratio of each well was calculated.
(§4) The fluorescence response was quantitatively compared to ADIFAB2 to search for changes in magnitude and fatty acid profile; for example the response to one fatty acid relative to another. For each probe the ratio differences (AR) between wells with each fatty acid compared to a corresponding well with fatty acid free BSA were recorded. […]

Compared with B1, B2 is higher in “ΔR/ΔRAD2 LA” value: 0.67 for the first, 1.42 for the second.

First: B3
Second: B4
The “ΔR/ΔRAD2 LA” value of the first is higher: 1.08 for the first, 1.01 for the second.

First: B5
Second: B6
The “ΔR/ΔRAD2 LA” value of the first is higher: 2 for the first, 1.46 for the second.

Going from B7 to B8, the “ΔR/ΔRAD2 LA” value falls from 1.04 to 0.48.

For B9, the “ΔR/ΔRAD2 LA” value was 1.14.

Test: Probe fluorescence ratio response to arachidonate:BSA complex, relative to ADIFAB2 (ΔR/ΔRAD2)
Assay type: binding
Conditions: fluorescence response (R-Ro) relative to ADIFAB2; arachidonate
Protocol: as §1, §2, §3, §4

Compared with B1, B2 is higher in “ΔR/ΔRAD2 AA” value: 0.44 for the first, 1.35 for the second.

Compared with B3, B4 is higher in “ΔR/ΔRAD2 AA” value: 0.68 for the first, 1.27 for the second.

Compared with B5, B6 is lower in “ΔR/ΔRAD2 AA” value: 2.04 for the first, 1.31 for the second.

Compared with B7, B8 is lower in “ΔR/ΔRAD2 AA” value: 1.11 for the first, 0.62 for the second.

In the case of B9, the “ΔR/ΔRAD2 AA” value is reported as 1.12.

Test: Probe fluorescence ratio response to oleate:BSA complex, relative to ADIFAB2 (ΔR/ΔRAD2)
Assay type: binding
Conditions: fluorescence response (R-Ro) relative to ADIFAB2; oleate
Protocol: as §1, §2, §3, §4

First: B1
Second: B2
The “ΔR/ΔRAD2 OA” value of the first is lower: 0.51 for the first, 1.19 for the second.

Going from B3 to B4, the “ΔR/ΔRAD2 OA” value rises from 0.78 to 0.93.

Going from B5 to B6, the “ΔR/ΔRAD2 OA” value falls from 1.83 to 1.49.

Compared with B7, B8 is lower in “ΔR/ΔRAD2 OA” value: 0.99 for the first, 0.52 for the second.

For B9, the “ΔR/ΔRAD2 OA” value was 1.15.

Test: Probe fluorescence ratio response to linolenate:BSA complex, relative to ADIFAB2 (ΔR/ΔRAD2)
Assay type: binding
Conditions: fluorescence response (R-Ro) relative to ADIFAB2; linolenate
Protocol: as §1, §2, §3, §4

First: B1
Second: B2
The “ΔR/ΔRAD2 LNA” value of the first is lower: 1.04 for the first, 1.07 for the second.

Going from B3 to B4, the “ΔR/ΔRAD2 LNA” value falls from 0.76 to 0.62.

First: B5
Second: B6
The “ΔR/ΔRAD2 LNA” value of the first is higher: 2.05 for the first, 1.35 for the second.

Compared with B7, B8 is lower in “ΔR/ΔRAD2 LNA” value: 1.03 for the first, 0.48 for the second.

With B9 the “ΔR/ΔRAD2 LNA” value was 1.16.

Test: Probe fluorescence ratio response to palmitate:BSA complex, relative to ADIFAB2 (ΔR/ΔRAD2)
Assay type: binding
Conditions: fluorescence response (R-Ro) relative to ADIFAB2; palmitate
Protocol: as §1, §2, §3, §4

Compared with B1, B2 is lower in “ΔR/ΔRAD2 PA” value: 0.93 for the first, 0.55 for the second.

First: B3
Second: B4
The “ΔR/ΔRAD2 PA” value of the first is higher: 0.41 for the first, 0.32 for the second.

Compared with B5, B6 is higher in “ΔR/ΔRAD2 PA” value: 0.91 for the first, 1.32 for the second.

Compared with B7, B8 is lower in “ΔR/ΔRAD2 PA” value: 0.41 for the first, 0.26 for the second.

With B9 the “ΔR/ΔRAD2 PA” value was 1.02.

Reference: patent US20050244864A1, “Development and use of fluorescent probes of unbound analytes” (priority 2004, published 2005)
